US20260224761A1, “DUAL LABELLED COMPOUNDS TARGETING THE PROSTATE SPECIFIC MEMBRANE ANTIGEN” (priority 2023, published 2026)
Read-outs that look alike come from different tables or passages of the source. Values belong to the compound of their own block, whether it stands above or below them. Where a SMILES comes first, the peptide text is derived from it. [ ]: non-standard residue; d: D form. The star is where a group is joined. X1 = O=C(O)CC[C@H](NC(=O)N[C@@H](CCCCNC(=O)CCCCCCC(=O)*)C(=O)O)C(=O)O; d2Nal = N[C@H](Cc1ccc2ccccc2c1)C(=O)O; Mercaptoacetyl = O=C(CS)*

What was measured:
Plasma protein binding = type: in vitro ADME; settings: plasma
Description: Quantum yield, molar extinction coefficient and serum protein binding experiments were performed according to previously published procedures (Hensbergen A. W. et al., Dyes and Pigments, 2018, 152, 19-28).

[1] = Lipophilicity, modified shake-flask method; type: physicochemical
Description: The lipophilicity of [^99mTc]PSMA-HSG, [^99mTc]EuK(SO3)Cy5-mas3 and [^99mTc]EuK(SO3)Cy5(SO3)-mas3 was determined via a modified shake-flask method as described ([…]. et al., Eur. J. Nuc. Mol. Med. Imaging Res., 2014, 4, 63).

PSMA [2] = molecular target: T1, PSMA (Homo sapiens, UniProt Q04609); assay: Competitive binding experiments (IC50) using PSMA-expressing LNCaP cells and ([125I]I-BA)EuK as standard radioligand
T1 construct: using PSMA-expressing LNCaP cells and ([^125I]I-BA)EuK as standard radioligand; endogenous in cells; host or cells: LNCaP cells
T1 sequence (Q04609 whole entry): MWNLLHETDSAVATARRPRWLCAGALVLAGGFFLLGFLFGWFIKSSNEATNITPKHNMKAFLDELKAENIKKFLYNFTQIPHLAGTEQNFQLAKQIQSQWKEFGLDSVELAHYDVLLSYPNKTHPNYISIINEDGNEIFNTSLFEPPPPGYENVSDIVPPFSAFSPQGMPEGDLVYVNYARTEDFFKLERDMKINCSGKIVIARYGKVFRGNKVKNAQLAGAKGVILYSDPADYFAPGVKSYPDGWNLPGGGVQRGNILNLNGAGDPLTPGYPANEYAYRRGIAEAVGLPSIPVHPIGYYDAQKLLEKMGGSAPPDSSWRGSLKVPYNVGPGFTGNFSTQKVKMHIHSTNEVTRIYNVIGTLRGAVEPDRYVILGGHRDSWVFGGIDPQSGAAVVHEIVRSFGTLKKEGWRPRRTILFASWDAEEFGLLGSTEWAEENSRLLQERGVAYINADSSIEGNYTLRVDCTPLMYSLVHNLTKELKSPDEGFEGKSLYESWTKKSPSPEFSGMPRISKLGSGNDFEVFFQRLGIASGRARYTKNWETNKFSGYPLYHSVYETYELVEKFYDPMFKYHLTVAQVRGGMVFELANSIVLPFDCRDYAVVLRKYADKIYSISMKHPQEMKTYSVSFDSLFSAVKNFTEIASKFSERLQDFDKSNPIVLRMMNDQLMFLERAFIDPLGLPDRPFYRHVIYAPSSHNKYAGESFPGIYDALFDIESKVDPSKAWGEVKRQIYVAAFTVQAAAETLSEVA
Description: Competitive binding experiments (IC50) were carried out in accordance with an established protocol ([…]. et al., Eur. J. Nuc. Mol. Med. Imaging Res., 2014, 4, 63) using PSMA-expressing LNCaP cells and ([^125I]I-BA)EuK as standard radioligand.

[3] = Biodistribution in LNCaP xenograft bearing NSG mice; type: in vivo; settings: NSG, mouse, in vivo, iv, total radioactivity; for tissue uptake at 2 h: 1 nmol/animal; for tissue uptake at 6 h: 0.1 nmol/animal
Description: (§1) The biodistribution of [^99mTc]PSMA-HSG, [^99mTc]EuK(SO3)Cy5-mas3 and [^99mTc]EuK(SO3)Cy5(SO3)-mas3 was investigated in LNCaP xenograft bearing NSG mice. […] (0.1 nmol-cohort), respectively.
(§2) To assess the influence of the different ligand designs of [^99mTc]PSMA-HSG and [^99mTc]mas3-(SO3)Cy5(SO3)—EuK on in vivo PSMA-targeting and general pharmacokinetics, their in vivo biodistribution was investigated in LNCaP xenograft bearing NSG mice in two different experimental settings: • A) at 2 h p.i. using a ligand dose of 1 nmol/animal. These conditions were chosen to allow comparability of the data from this study (Table 3) with previous results in a different tumor model (Hensbergen, A. W. et al., J. Nucl. Med., 2020, 61, 234-241). Here, [^99mTc]mas3-Cy5(SO3)—EuK was additionally included as an internal reference to establish the “missing link” between studies. • B) at 6 h p.i. using a ligand dose of 0.1 nmol/animal (Table 4). The latter settings were adapted to a timeline and dosing with more similarity to the clinical situation (surgery at a later time point, microdosing principle). Of note, however, a ligand amount of 0.1 nmol/mouse (extrapolation: 280 nmol/70 kg patient) still exceeds the potentially applicable clinical dose (48 nmol/70 kg patient for a compound with a molecular weight of −2100 g/mol). Nevertheless, it represents a dose level at which significant competition effects between unlabeled precursor and radioligand for PSMA binding sites in tumor tissue are not probable (Eder A. C. et al., J. Nucl. Med., 2021, 62, 1461-1467; Kalidindi T. M. et al., Eur. J. Nucl. Med. Mol. Imaging, 2021, 48, 2642-2651).

PSMA [4] = molecular target: T1, PSMA; settings: LNCaP cells; reference compounds, assayed under identical conditions (literature cited in table title); # = free mas3-chelator; cited from earlier work
[5] = tested on: PC346C orthotopic xenografts in Balb/c nude mice; settings: 1 nmol ligand, 2 h p.i.; cited from earlier work
[6] = tested on: LNCaP xenograft bearing NSG mice; assay: Biodistribution in LNCaP xenograft bearing NSG mice; type: in vivo
Description: as §1, §2

lower PSMA-affinity compared to [99mTc]PSMA-HSG (PSMA [2]): 4.5 fold
SMILES: CC1(C)C(/C=C/C=C/C=C2/N(CCCCNC(=O)CCCCCNC(=O)[C@@H](CO)NC(=O)[C@@H](CO)NC(=O)[C@@H](CO)NC(=O)CS)c3ccc(S(=O)(=O)O)cc3C2(C)C)=[N+](CCCCCC(=O)NCCCC[C@H](NC(=O)N[C@@H](CCC(=O)O)C(=O)O)C(=O)O)c2ccc(S(=O)(=O)[O-])cc21 [[^99mTc]mas3-(SO3)Cy5(SO3)-EuK, metal not drawn]
fraction unbound (Plasma protein binding; Plasma Protein Binding (%)): 0.256
logP [1]: -2.99
tissue uptake at 2 h ([3]; Biodistribution: LNCaP tumor): 3.5 ± 1.1 %ID/g
tissue uptake at 2 h ([3]; Biodistribution: blood): 0.7 ± 0.1 %ID/g
tissue uptake at 2 h ([3]; Biodistribution: heart): 0.3 ± 0.1 %ID/g
tissue uptake at 2 h ([3]; Biodistribution: intestines): 4.2 ± 0.4 %ID/g
tissue uptake at 2 h ([3]; Biodistribution: kidneys): 59.2 ± 14.4 %ID/g
tissue uptake at 2 h ([3]; Biodistribution: liver): 1 ± 0.4 %ID/g
tissue uptake at 2 h ([3]; Biodistribution: lung): 1.1 ± 0.2 %ID/g
tissue uptake at 2 h ([3]; Biodistribution: muscle): 0.2 ± 0.03 %ID/g
tissue uptake at 2 h ([3]; Biodistribution: pancreas): 0.3 ± 0.1 %ID/g
tissue uptake at 2 h ([3]; Biodistribution: salivary glands): 3.1 ± 0.5 %ID/g
tissue uptake at 2 h ([3]; Biodistribution: spleen): 4.3 ± 1.3 %ID/g
tissue uptake at 2 h ([3]; Biodistribution: stomach): 0.6 ± 0.1 %ID/g

SMILES: O=C(O)CC[C@H](NC(=O)N[C@@H](CCCCNC(=O)CCCCCCC(=O)NCCCC[C@@H](NC(=O)[C@@H](Cc1ccc2ccccc2c1)NC(=O)[C@@H](Cc1ccc(O)cc1)NC(=O)[C@H](CO)NC(=O)[C@H](CO)NC(=O)[C@H](CO)NC(=O)CS)C(=O)O)C(=O)O)C(=O)O [PSMA-I&S] (Mercaptoacetyl-SSS[dY][d2Nal][dK](X1)-OH)
IC50 (PSMA [4]): 39.7 ± 1.2 nM

IC50 (PSMA [2]; LNCaP cells, free mas3-chelator, novel compounds): 29.6 ± 5.6 nM
SMILES: CC(=O)SCC(=O)N[C@H](CO)C(=O)N[C@H](CO)C(=O)N[C@H](CO)C(=O)N[C@H](CCCCNC(=O)CCCCCN1\C(=C/C=C/C=C/C2=[N+](C)c3ccc(S(=O)(=O)O)cc3C2(C)C)C(C)(C)c2cc(S(=O)(=O)O)ccc21)C(=O)N[C@H](Cc1ccc(O)cc1)C(=O)N[C@H](Cc1ccc2ccccc2c1)C(=O)N[C@H](CCCCNC(=O)CCCCCCC(=O)NCCCC[C@H](NC(=O)N[C@@H](CCC(=O)O)C(=O)O)C(=O)O)C(=O)O [PSMA-HSG, Ac-mas3-k(Sulfo-Cy5)-γ-nal-k-Sub-EuK]

SMILES: CC1(C)C(/C=C/C=C/C=C2/N(CCCCNC(=O)CCCCNC(=O)[C@@H](CO)NC(=O)[C@@H](CO)NC(=O)[C@@H](CO)NC(=O)CS)c3ccccc3C2(C)C)=[N+](CCCCCC(=O)NCCCC[C@H](NC(=O)N[C@@H](CCC(=O)O)C(=O)O)C(=O)O)c2ccc(S(=O)(=O)[O-])cc21 [[^99mTc]mas3-Cy5(SO3)-EuK, metal not drawn]
fraction unbound (Plasma protein binding; radiolabelled tracer, four tracers compared in this study, read-out: Plasma Protein Binding (%) (converted)): 0.035
logP ([1]; radiolabelled tracer, shake-flask, read-out: lipophilicity [log POW]): -1.94
absolute intestinal uptake [5]: 1.61±0.29 % iD/g
tumor accumulation [5]: 15.2±2.9 % iD/g
tissue uptake at 6 h ([3]; 6 h p.i., read-out: Biodistribution: LNCaP tumor): 8.1 ± 1.4 %ID/g
tissue uptake at 6 h ([3]; 6 h p.i., read-out: Biodistribution: blood): 0.7 ± 0.1 %ID/g
tissue uptake at 6 h ([3]; 6 h p.i., read-out: Biodistribution: heart): 0.3 ± 0.1 %ID/g
tissue uptake at 6 h ([3]; 6 h p.i., read-out: Biodistribution: intestines): 9.7 ± 1.1 %ID/g
tissue uptake at 6 h ([3]; 6 h p.i., read-out: Biodistribution: kidneys): 70 ± 22 %ID/g
tissue uptake at 6 h ([3]; 6 h p.i., read-out: Biodistribution: liver): 1.7 ± 0.3 %ID/g
tissue uptake at 6 h ([3]; 6 h p.i., read-out: Biodistribution: lung): 0.8 ± 0.2 %ID/g
tissue uptake at 6 h ([3]; 6 h p.i., read-out: Biodistribution: muscle): 0.2 ± 0.1 %ID/g
tissue uptake at 6 h ([3]; 6 h p.i., read-out: Biodistribution: pancreas): 0.3 ± 0.1 %ID/g
tissue uptake at 6 h ([3]; 6 h p.i., read-out: Biodistribution: salivary glands): 8.9 ± 2.1 %ID/g
tissue uptake at 6 h ([3]; 6 h p.i., read-out: Biodistribution: spleen): 1.9 ± 0.6 %ID/g
tissue uptake at 6 h ([3]; 6 h p.i., read-out: Biodistribution: stomach): 1.4 ± 0.3 %ID/g
tissue to tissue ratio at 6 h ([3]; 0.1 nmol/mouse, 6 h p.i., 0.1 nmol, read-out: tumor/kidney ratio): 0.12 ± 0.04
tissue uptake at 2 h ([3]; 2 h p.i., read-out: Biodistribution: LNCaP tumor): 6.6 ± 2.8 %ID/g
tissue uptake at 2 h ([3]; 2 h p.i., read-out: Biodistribution: blood): 0.9 ± 0.1 %ID/g
tissue uptake at 2 h ([3]; 2 h p.i., read-out: Biodistribution: heart): 0.4 ± 0.1 %ID/g
tissue uptake at 2 h ([3]; 2 h p.i., read-out: Biodistribution: intestines): 6.3 ± 2.5 %ID/g
tissue uptake at 2 h ([3]; 2 h p.i., read-out: Biodistribution: kidneys): 21 ± 4.2 %ID/g
tissue uptake at 2 h ([3]; 2 h p.i., read-out: Biodistribution: liver): 1.3 ± 0.5 %ID/g
tissue uptake at 2 h ([3]; 2 h p.i., read-out: Biodistribution: lung): 1.1 ± 0.1 %ID/g
tissue uptake at 2 h ([3]; 2 h p.i., read-out: Biodistribution: muscle): 0.2 ± 0.03 %ID/g
tissue uptake at 2 h ([3]; 2 h p.i., read-out: Biodistribution: pancreas): 0.3 ± 0.1 %ID/g
tissue uptake at 2 h ([3]; 2 h p.i., read-out: Biodistribution: salivary glands): 1.7 ± 0.3 %ID/g
tissue uptake at 2 h ([3]; 2 h p.i., read-out: Biodistribution: spleen): 1.9 ± 0.5 %ID/g
tissue uptake at 2 h ([3]; 2 h p.i., read-out: Biodistribution: stomach): 0.5 ± 0.1 %ID/g
tissue to tissue ratio at 2 h ([3]; 1 nmol/mouse, 2 h p.i., 1 nmol, read-out: tumor/kidney ratio): 0.31 ± 0.15
kidney accumulation compared to both ligands containing disulfo-Cy5 ([6]; 2 h p.i., 1 nmol/animal): threefold lower
increase of tumor accumulation over time ([6]; 6 h p.i./0.1 nmol versus 2 h p.i./1 nmol): only slightly increased
